The values that follow come from US8487082B2, “Synthetic scFv analogue to the 6313/G2 (anti angiotensin II type 1 receptor) monoclonal antibody variable regions” (Queen Mary & Westfield College, priority 2008, dated 2013).

The test system of series [1] is breast cancer cells. The series can be described thus: Breast cancer cell proliferation (summary statement). In kind it is cell-based. The procedure: (§1) Confluent cell monolayers were removed from tissue culture flasks using trypsin/EDTA. Cells (15×10^3 per well) were seeded into 96 well tissue culture plates containing the appropriate medium for each cell line. […] Cell viability was assessed by the ability of metabolically active cells to reduce 2,3-bis[2-Methoxy-4-nitro-5-sulphophenyl]-2H-tetrazolium-5-carboxyanilide inner salt (XTT) to the coloured formazan product. Absorbance was measured using a Multiskan Ascent microplate reader (Thermo Labsystem, Helsinki, Finland) at a wavelength of 450 nm and a reference wavelength of 630 nm. Each measurement was performed in triplicate. IC50s were calculated using a non-linear regression formula using GraphPad Prism v4.0 software (GraphPad Software Inc, San Diego Calif., USA).

For series [2], the system named is MCF-7 cell xenografts. Nature of the series: In vivo xenograft assay. As to conditions: nu/nu mice, 13 nmol/kg. The method, then:
Mice were injected s.c. on the right-flank, with 150 μl sterile PBS containing 7.5×10^6 MCF-7 cells. Tumour cells were allowed to grow for 4 weeks without hormone support, thereafter mice received weekly s.c. injections of 17β-oestradiol valerate (0.1 mg/Kg body weight), in sesame oil (Kasukabe et al., Breast Cancer Res. 7(6) R1097-110 (2005)) for a further 8 weeks. Animals were monitored daily for general health, and body weights were measured twice-weekly. Tumour size was measured 3 times per week with slide callipers, and volumes were calculated as (L×W^2)/2, where L and W are the major and minor diameters, respectively. Once tumour volumes reached 150 to 200 mm^3, mice were randomized to treatment and control groups of 8 to 10 per group. Mice were treated by subcutaneous injections of R6313/G2 in sterile PBS (0.1 ml) at doses of 0.4 mg/kg (13 nmol/kg), 0.8 mg/kg (27 nmol/Kg), and 1.36 mg/kg (45.3 nmol/kg) body weight, twice per day for seven days. Control mice received sterile PBS. […] Relative body weights (%) were calculated as (Wt/Wi)×100, where Wt is the body weight at any given time and Wi is the body weight at treatment initiation. Net tumour volume was calculated as Vt-Vi, where Vt is the tumour volume at any given time and Vi is the tumour volume at the start of treatment, and expressed as a percentage of Vi.

Series [3] has as its system T-47D breast cancer cells. The series can be described thus: Fluorimetric invasion assay (QCM cell invasion, ECM). In kind it is cell-based. As to conditions: for T-47D cell invasion through ECM: scFv alone, 50 and 250 nmol/L, 24 h. The method, then: The method used is QCM™ Cell invasion assay (Chemicon Cat No. ECM555). This uses fluorimetric detection of cells which have broken through a reconstituted basement membrane matrix proteins (ECM) derived from the Engelbreth-Holm-Swam (EHS) mouse tumour (Repesh LA (1989) Invasion Metastasis 9: 192-208)
ECM-coated inserts were placed in 96-well plates and 100 μl of prewarmed serum-free medium added to the interior of the inserts in order to hydrate the ECM layer over 1-2 h at room temperature. Media was removed and 150 μl of serum free medium added to the wells of the 96-well plate housing the inserts. 100 μl of medium containing 10^5 cells/per insert was then introduced. The plate was covered and incubated at 37 C in a 5% CO2/95% air humidified incubator for 24 h. After removing cells from inside the insert and rinsing with PBS, the insert was replaced into a 96-well plate containing Cell Detachment Solution and incubated at 37 C for 30 min. Cells that had invaded through the ECM to the bottom of the insert were, in this way, dislodged from the insert for subsequent lysis and measurement of fluorescence using a 480/520 filter set in a Fluostar Optima fluorimeter (BMG Labtech), according to manufacturer's instructions.

The subject of series [4] is breast cancer cells. Nature of the series: Caspase-driven apoptosis (summary statement). The series is classed as cell-based. An excerpt:
(§2) Cells were harvested using Trypsin/EDTA and counted.

The nature of series [5]: Body weight, aldosterone and activity of hollow fiber mice. The series is classed as in vivo, nu/nu mice.
In series [6] the target is T1, antigenic peptide […] (AT1 receptor) (Rattus norvegicus, UniProt P25095).
T1 construct: 96 well plates coated with the original antigenic peptide ([…]
Nature of the series: Antigen ELISA during panning of scFv library. The series is classed as binding. The procedure:
The 6313/G2 mouse monoclonal antibody hybridoma was grown as previously described (Barker et at J. Mol. Endocrinol. 11 241-245 (1993)). A pool of cDNA derived from mRNA was used to obtain heavy and light chains by PCR. A linker fragment encoding (Gly4Ser)3 was used to assemble the scFv library of inserts and a phage display library was created by directionally cloning these inserts into the pCANTAB 5 E phagemid vector (Amersham Pharmacia, High Wycombe, UK). An E-tag for the expressed sequence GAPVPYPDPLEPR (SEQ ID NO: 11) was included in this vector and used in subsequent panning and purification steps. The phagemid library was then used to transform TG1 E. coli, and phagemid rescue was carried out using the M13K07 helper phage followed by several rounds of panning Positive expressing clones were identified by ELISA using 96 well plates coated with the original antigenic peptide (EDGIKRIQDD; SEQ ID NO:1) and an anti-E-tag antibody (Amersham Pharmacia) detected using an HRP-linked secondary antibody. One particular clone was taken forward for expression and purification and functional assessment on the basis of giving the highest signal in the antigen ELISA.
In general terms: An ELISA detects its analyte on a solid surface through an enzyme-linked reagent.

Series [7] has as its system T47D cells. Nature of the series: Apoptosis - caspase-3/7 activity. In kind it is cell-based.
Excerpt: as §2

Series [8] relates to MDA-MB-231 cells. Nature of the series: Cell viability assay (XTT). As to conditions: MDA-MB-231, 100 nmol angiotensin II per L, XTT, 48 hours. The series is classed as cell-based. The procedure:
MCF-7, T47D and MDA-MB-231 breast cancer cells were obtained from The American Tissue Culture Collection (LGC Promochem, Teddington, UK). Rat aortic smooth muscle cells (RASMC) were developed from primary culture (Barker et al., 1996). MCF-7 cells were maintained in Minimal Essential Medium (MEM), T47D and MDA-MB-231 cells in RPMI 1640 medium, and RASMC were maintained in Dulbecco's Modified Eagle's Medium (DMEM). All media were supplemented with 2 mM L-glutamine, 10% fetal bovine serum (FBS), 50 U/ml penicillin and 0.05 mg/ml streptomycin. Cells were maintained at 37° C. in a humidified atmosphere ([…], 5% CO2).
as §1
A general note: Tetrazolium dyes change colour on reduction, which living cells bring about.

[9] abbreviates: in the presence of up to 100 nmol angiotensin II per L.

B1: R6313/G2: murine scFv analogue of the 6313/G2 anti-AT1 receptor monoclonal antibody variable domains, SEQ ID NO:15 (protein)
scFv: YAAQPAMAQVKLQQSGPELEKPGASVKISCKASGYSFTGYNMNWVKQSNGKSLEWIGNIDPYYGGTTYNQKFKGKATLTVDKSSSTAYMQLKSLTSEDSAVYYCAREVDYWGQGTTVTVSSGGGGSGGGGSGGGGSDIELTQSPASLAVSLGQRATISYRASKSVSTSGYSYMHWNQQKPGQPPRLLIYLVSNLESGVPARFSGSGSGTDFTLNIHPVEEEDAATYYCQHIRELTRSEGTKLEIKRAAAGAPVPY
modifications: 12D
Take B1: the “breast cancer cell proliferation” value is recorded as “no effect” in series [1] (in the absence of angiotensin II) and “significantly inhibits breast cancer cell proliferation” in series [1] (setting [9]). Further, in series [2], the “cancer cell growth, xenograft tumours” value is reported as “significantly inhibited cancer cell growth”. Moreover, the “inhibition of cell invasion” value in series [3] (250 nmol/L R6313/G2 with angiotensin II 100 nmol/L, 24 hour assay period) is “up to 25%”. Besides, the “effect on T-47D cell invasion in the presence of angiotensin II” value in series [3] (250 nmol/L scFv, angiotensin II 100 nmol/L) is given as “significantly more pronounced”. For the same molecule, the entries for the “T-47D cell invasion through ECM” value in series [3] and in series [3] (listed as R6313/G2 clone12D) were “inhibits T-47D cell invasion” and “significantly inhibits T-47D cell invasion”, respectively. Besides, the values for the caspase-driven apoptosis result in series [4] (angiotensin II omitted) and in series [4] (setting [9]) were “omission of angiotensin blocks its effects” and “enhances caspase-driven apoptosis”, respectively. Further, the animal activity entry in series [5] (13 nmol/kg 2× per day) is reported as “no effect”. Besides, the body weight result in series [5] (13 nmol/kg 2× per day) is reported as “no effect”. In series [5] (13 nmol/kg 2× per day), the circulating aldosterone concentrations result is given as “no effect”. In addition, in series [5] (hollow fiber mice, during the period of treatment), the “body weights of the experimental animals” value is “no changes”. For the same molecule, the “activity of clones (preliminary studies)” value in series [6] is “highest activity”. In addition, the “effect on angiotensin II inhibition of caspase-3/7 activity” value in series [7] (100 nmol/L angiotensin II, 12 hours) was “inhibition was blocked”. The caspase-3/7 activity result in series [7] (R6313/G2 alone, 48 hours) is recorded as “dose-dependent increase of caspase-3/7 activity”. Moreover, the “Threshold value for inhibition of cell survival (P<0.05 or better)” value in series [8] came to 0.05 µM.
